Values quoted from earlier work in article PMC8967867.
pKd: −log10 of the molar value.

Target: NCOA3 CID (Homo sapiens) (UniProt Q9Y6Q9)
Sequence (Q9Y6Q9 1023-1093): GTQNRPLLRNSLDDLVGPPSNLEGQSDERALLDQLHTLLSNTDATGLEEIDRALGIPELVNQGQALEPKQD

Sequence of CBP NCBD (Q92793 2058-2116): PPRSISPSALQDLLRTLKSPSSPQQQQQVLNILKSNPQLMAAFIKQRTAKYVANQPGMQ

pKd: 6.70
Substance: CBP NCBD (from UniProt Q92793)
